Patent US7067277 (H LUNDBECK A S, dated 2006)

Legend:
Experiment in all cases: cell-based or functional assay
human GLP-1 receptor = human GLP-1 receptor (human, UniProt P43220 24-463)
human NPFF1 receptor = human NPFF1 receptor (human, UniProt Q9GZQ6 1-430)
[1] = molecular target: human dopamine D1 receptor (human, UniProt P21728 1-446)
human Y1 receptor = molecular target: T1, human Y1 receptor (human, UniProt P25929 1-384)
T1 sequence (looked up): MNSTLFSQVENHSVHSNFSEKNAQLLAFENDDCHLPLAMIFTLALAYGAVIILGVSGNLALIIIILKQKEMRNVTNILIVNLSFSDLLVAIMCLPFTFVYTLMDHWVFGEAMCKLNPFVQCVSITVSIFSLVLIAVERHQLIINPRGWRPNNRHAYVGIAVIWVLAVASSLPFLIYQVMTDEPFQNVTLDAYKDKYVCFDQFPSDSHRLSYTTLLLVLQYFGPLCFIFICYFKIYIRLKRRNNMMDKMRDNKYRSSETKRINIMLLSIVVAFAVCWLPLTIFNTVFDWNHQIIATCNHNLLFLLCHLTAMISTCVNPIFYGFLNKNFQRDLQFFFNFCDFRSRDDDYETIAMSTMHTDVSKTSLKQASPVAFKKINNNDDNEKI

[2] = molecular target: human dopamine D5 receptor (human, UniProt P21918 1-477)
rat GALR3 receptor = molecular target: T2, rat GALR3 receptor (rat, UniProt O88626 1-370)
T2 sequence (looked up): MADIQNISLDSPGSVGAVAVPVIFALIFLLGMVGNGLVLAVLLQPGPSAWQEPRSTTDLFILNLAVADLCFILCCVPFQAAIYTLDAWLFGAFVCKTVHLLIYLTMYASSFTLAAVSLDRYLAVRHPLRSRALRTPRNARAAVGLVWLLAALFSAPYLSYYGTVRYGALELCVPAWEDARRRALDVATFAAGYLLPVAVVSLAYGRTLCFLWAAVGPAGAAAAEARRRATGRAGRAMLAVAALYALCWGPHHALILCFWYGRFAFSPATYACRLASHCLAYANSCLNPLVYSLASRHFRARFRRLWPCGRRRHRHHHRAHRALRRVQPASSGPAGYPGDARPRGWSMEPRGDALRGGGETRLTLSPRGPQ

[3] = molecular target: human dopamine D2 receptor (human, UniProt P14416 1-443)
human 5HT7 receptor = human 5HT7 receptor (human, UniProt P34969 1-479)
human NPFF2 receptor = human NPFF2 receptor (human, UniProt Q9Y5X5 1-522)
human 5HT1B receptor = human 5HT1B receptor (human, UniProt P28222 1-390)
[4] = molecular target: human β2 adrenergic receptor (human, UniProt P07550 1-413)
rat Y4 receptor = rat Y4 receptor (rat, UniProt Q63447 1-375)
human GALR1 receptor = molecular target: T3, human GALR1 receptor (human, UniProt P47211 1-349)
T3 sequence (looked up): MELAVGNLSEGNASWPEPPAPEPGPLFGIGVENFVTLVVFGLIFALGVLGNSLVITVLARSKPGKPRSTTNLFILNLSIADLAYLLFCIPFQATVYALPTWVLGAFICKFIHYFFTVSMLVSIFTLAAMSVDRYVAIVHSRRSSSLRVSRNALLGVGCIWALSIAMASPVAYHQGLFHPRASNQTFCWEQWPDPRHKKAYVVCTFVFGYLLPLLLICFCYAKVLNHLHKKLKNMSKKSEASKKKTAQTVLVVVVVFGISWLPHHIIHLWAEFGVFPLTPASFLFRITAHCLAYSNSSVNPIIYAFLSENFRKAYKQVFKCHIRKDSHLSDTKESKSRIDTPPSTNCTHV

human Y2 receptor = molecular target: T4, human Y2 receptor (human, UniProt P49146 1-381)
T4 sequence (looked up): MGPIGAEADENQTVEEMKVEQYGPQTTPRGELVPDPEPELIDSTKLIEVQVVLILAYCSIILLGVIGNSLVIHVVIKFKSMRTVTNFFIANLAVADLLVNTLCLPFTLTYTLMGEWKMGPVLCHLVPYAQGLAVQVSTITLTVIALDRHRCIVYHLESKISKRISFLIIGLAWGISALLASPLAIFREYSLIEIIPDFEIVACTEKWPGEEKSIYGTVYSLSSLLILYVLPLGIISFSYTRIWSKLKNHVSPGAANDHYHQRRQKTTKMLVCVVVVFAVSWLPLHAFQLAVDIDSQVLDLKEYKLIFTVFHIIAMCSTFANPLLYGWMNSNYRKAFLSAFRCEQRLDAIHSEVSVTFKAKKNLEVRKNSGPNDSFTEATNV

rat GALR1 receptor = molecular target: T5, rat GALR1 receptor (rat, UniProt Q62805 1-346)
T5 sequence (looked up): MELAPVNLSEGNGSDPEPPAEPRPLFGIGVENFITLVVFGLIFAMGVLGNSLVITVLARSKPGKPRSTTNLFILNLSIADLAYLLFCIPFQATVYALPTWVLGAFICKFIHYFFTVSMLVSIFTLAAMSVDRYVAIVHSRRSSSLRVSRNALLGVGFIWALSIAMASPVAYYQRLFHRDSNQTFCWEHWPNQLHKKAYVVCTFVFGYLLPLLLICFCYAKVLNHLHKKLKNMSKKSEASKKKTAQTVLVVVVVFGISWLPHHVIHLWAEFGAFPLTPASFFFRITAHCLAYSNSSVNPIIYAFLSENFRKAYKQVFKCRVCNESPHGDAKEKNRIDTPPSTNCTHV

human GALR3 receptor = molecular target: T6, human GALR3 receptor (human, UniProt O60755 1-368)
T6 sequence (looked up): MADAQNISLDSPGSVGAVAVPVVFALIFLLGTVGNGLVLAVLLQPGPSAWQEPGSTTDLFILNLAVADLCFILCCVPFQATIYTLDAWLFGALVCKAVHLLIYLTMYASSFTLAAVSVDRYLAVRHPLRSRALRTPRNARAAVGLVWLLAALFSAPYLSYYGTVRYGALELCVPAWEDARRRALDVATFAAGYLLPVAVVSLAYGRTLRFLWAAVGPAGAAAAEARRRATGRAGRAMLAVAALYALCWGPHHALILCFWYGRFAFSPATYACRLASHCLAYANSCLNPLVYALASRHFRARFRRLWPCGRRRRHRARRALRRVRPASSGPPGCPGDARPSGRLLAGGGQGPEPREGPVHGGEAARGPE

Sequence of human dopamine D5 receptor (P21918 whole entry): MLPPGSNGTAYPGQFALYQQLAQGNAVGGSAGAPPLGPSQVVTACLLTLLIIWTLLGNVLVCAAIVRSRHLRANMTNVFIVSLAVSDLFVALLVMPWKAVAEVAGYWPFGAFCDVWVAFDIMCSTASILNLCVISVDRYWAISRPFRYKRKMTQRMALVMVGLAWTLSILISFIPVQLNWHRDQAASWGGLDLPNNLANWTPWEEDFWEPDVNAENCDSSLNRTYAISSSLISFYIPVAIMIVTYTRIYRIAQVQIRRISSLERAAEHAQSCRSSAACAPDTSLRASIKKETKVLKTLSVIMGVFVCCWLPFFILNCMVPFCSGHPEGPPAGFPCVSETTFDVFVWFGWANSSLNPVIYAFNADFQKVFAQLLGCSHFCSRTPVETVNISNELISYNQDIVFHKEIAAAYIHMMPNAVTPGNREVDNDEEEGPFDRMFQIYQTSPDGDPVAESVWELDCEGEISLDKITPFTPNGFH
Sequence of human NPFF2 receptor (Q9Y5X5 whole entry): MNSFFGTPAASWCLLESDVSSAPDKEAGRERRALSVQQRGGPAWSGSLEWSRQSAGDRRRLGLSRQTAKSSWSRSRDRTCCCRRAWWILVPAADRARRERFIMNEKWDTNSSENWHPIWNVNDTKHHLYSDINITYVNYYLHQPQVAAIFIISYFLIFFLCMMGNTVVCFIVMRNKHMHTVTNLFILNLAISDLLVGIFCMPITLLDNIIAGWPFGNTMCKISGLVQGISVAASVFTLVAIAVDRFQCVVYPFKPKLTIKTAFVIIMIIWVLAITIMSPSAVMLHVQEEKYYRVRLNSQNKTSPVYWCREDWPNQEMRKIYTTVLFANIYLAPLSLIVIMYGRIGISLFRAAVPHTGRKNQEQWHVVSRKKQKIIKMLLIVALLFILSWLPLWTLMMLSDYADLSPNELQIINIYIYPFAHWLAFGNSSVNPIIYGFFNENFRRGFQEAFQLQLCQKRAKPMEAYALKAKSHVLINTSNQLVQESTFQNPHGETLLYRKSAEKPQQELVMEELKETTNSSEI
Sequence of human NPFF1 receptor (Q9GZQ6 whole entry): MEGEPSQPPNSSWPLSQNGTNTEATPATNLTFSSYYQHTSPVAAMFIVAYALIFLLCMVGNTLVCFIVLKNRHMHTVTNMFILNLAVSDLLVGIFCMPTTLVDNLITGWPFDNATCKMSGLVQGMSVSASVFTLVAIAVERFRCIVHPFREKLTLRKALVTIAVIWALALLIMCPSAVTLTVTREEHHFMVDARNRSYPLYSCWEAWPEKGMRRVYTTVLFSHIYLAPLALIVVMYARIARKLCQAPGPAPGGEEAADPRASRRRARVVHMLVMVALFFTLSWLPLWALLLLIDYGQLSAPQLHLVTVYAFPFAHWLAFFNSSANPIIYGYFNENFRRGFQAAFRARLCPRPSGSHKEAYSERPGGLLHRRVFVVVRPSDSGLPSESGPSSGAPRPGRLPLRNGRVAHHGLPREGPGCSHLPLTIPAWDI
Sequence of human 5HT1B receptor (P28222 whole entry): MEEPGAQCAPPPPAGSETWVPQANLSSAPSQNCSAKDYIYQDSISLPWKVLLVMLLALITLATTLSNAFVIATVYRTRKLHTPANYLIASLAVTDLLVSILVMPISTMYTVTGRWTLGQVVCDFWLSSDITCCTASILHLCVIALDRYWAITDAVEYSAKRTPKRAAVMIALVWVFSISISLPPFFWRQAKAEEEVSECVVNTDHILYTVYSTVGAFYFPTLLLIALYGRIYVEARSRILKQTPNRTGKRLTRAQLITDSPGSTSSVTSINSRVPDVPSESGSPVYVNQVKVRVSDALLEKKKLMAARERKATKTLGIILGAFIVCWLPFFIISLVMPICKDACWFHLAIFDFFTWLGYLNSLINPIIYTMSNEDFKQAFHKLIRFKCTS
Sequence of human 5HT7 receptor (P34969 whole entry): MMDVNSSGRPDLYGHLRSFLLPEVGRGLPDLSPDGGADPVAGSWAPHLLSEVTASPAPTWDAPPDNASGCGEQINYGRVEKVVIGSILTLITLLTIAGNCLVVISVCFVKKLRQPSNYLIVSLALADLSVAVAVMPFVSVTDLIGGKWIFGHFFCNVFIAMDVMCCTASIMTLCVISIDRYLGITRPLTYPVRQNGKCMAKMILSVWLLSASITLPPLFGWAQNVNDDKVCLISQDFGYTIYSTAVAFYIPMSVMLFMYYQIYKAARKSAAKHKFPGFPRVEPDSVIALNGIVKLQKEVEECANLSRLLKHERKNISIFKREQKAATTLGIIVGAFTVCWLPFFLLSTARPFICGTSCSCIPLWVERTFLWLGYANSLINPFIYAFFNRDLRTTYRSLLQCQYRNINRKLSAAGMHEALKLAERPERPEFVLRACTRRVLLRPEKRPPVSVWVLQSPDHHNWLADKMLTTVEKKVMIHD
Sequence of human dopamine D1 receptor (P21728 whole entry): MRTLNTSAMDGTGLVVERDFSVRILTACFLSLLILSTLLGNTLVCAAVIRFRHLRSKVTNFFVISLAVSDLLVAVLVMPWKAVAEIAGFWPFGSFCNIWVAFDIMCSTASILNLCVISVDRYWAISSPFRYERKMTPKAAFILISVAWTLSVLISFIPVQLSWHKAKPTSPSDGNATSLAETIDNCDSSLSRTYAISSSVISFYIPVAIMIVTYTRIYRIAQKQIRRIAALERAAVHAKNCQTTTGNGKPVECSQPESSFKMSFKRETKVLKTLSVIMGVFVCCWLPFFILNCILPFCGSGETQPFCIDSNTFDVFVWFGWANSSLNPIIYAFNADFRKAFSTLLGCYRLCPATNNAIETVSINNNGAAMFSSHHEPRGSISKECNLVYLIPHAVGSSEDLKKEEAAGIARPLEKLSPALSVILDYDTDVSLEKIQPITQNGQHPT
Sequence of human dopamine D2 receptor (P14416 whole entry): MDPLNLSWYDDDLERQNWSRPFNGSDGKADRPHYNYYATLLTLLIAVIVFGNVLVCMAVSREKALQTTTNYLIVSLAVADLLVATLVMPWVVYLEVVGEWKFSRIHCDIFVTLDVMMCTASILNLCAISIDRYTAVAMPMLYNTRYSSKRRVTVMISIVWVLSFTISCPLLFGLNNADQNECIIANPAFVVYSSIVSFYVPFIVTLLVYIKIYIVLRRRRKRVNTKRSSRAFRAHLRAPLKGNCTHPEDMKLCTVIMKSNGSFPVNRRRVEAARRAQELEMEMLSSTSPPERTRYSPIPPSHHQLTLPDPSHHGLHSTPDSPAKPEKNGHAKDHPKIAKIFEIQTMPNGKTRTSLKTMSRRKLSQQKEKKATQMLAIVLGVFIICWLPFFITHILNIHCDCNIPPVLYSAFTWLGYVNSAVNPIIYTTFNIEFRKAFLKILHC
Sequence of rat Y4 receptor (Q63447 whole entry): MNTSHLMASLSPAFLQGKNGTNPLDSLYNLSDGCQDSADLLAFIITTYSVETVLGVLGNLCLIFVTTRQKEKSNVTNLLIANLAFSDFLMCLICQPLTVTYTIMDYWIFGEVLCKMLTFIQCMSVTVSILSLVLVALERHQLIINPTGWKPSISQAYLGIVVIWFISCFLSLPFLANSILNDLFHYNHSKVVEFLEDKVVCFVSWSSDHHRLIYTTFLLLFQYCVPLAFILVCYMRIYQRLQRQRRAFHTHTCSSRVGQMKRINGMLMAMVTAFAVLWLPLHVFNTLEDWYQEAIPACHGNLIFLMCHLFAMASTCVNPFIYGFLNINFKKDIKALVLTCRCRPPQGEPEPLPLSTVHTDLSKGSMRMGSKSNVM

Row | Binder | max Ca2+ signal, COS-7, FLIPR; agonist GLP-1 (human GLP-1 receptor) [fluorescence units] | max Ca2+ signal, COS-7, FLIPR; agonist NPFF (human NPFF1 receptor) [fluorescence units] | max Ca2+ signal, COS-7, FLIPR; agonist DA [1] [fluorescence units] | max Ca2+ signal, COS-7, FLIPR; agonist NPY (human Y1 receptor) [fluorescence units] | max Ca2+ signal, COS-7, FLIPR; agonist DA [2] [fluorescence units] | max Ca2+ signal, COS-7, FLIPR; agonist GAL (rat GALR3 receptor) [fluorescence units] | max Ca2+ signal, COS-7, FLIPR; agonist DA [3] [fluorescence units] | max Ca2+ signal, COS-7, FLIPR; agonist 5HT (human 5HT7 receptor) [fluorescence units] | max Ca2+ signal, COS-7, FLIPR; agonist NPFF (human NPFF2 receptor) [fluorescence units] | max Ca2+ signal, COS-7, FLIPR; agonist 5HT (human 5HT1B receptor) [fluorescence units] | max Ca2+ signal, COS-7, FLIPR; agonist NE [4] [fluorescence units] | max Ca2+ signal, COS-7, FLIPR; agonist PP (rat Y4 receptor) [fluorescence units] | max Ca2+ signal, COS-7, FLIPR; agonist GAL (human GALR1 receptor) [fluorescence units] | max Ca2+ signal, COS-7, FLIPR; agonist NPY (human Y2 receptor) [fluorescence units] | max Ca2+ signal, COS-7, FLIPR; agonist GAL (rat GALR1 receptor) [fluorescence units] | max Ca2+ signal, COS-7, FLIPR; agonist GAL (human GALR3 receptor) [fluorescence units]
1 | C. elegans Gαq/z5 (other) MACCLSEEAREQKRINQEIEKQLQRDKRNARRELKLLLLGTGESGKSTFIKQMRIIHGQGYSEEDKRAHIRLVYQNVFMAIQSMIRAMDTLDIKFGNESEELQEKAAVVREVDFESVTSFEEPYVSYIKELWEDSGIQECYDRRREYQLTDSAKYYLSDLRRLAVPDYLPTEQDILRVRVPTTGIIEYPFDLEQIIFRMVDVGGQRSERRKWIHCFENVTSIMFLVALSEYDQVLVECDNENRMEESKALFRTIITYPWFTNSSVILFLNKKDLLEEKILYSHLADYFPEYDGPPRDPIAAREFILKMFVDLNPDADKIIYSHFTCATDTENIRFVFAAVKDTILQHNLKYIGLC | 131 | 6590 | 12100 | 7720 | 657 | 2300 | 7620 | 166 | 7570 | 929 | 1840 | 3660 | 7650 | 7710 | 3090 | 1520
2 | C. elegans Gαq/z9 (other) MACCLSEEAREQKRINQEIEKQLQRDKRNARRELKLLLLGTGESGKSTFIKQMRIIHGQGYSEEDKRAHIRLVYQNVFMAIQSMIRAMDTLDIKFGNESEELQEKAAVVREVDFESVTSFEEPYVSYIKELWEDSGIQECYDRRREYQLTDSAKYYLSDLRRLAVPDYLPTEQDILRVRVPTTGIIEYPFDLEQIIFRMVDVGGQRSERRKWIHCFENVTSIMFLVALSEYDQVLVECDNENRMEESKALFRTIITYPWFTNSSVILFLNKKDLLEEKILYSHLADYFPEYDGPPRDPIAAREFILKMFVDLNPDADKIIYSHFTCATDTENIRFVFAAVKDTILQNNLKYIGLC | 135 | 2970 | 13100 | 6730 | 797 | 2970 | 4300 | 129 | 4580 | 1220 | 1700 | 2580 | 8490 | 5390 | 5950 | 2050
3 | Human Gαq/z5 (Ala→Ser substitution at position 171) (other) MTLESIMACCLSEEAKEARRINDEIERQLRRDKRDARRELKLLLLGTGESGKSTFIKQMRIIHGSGYSDEDKRGFTKLVYQNIFTAMQAMIRAMDTLKIPYKYEHNKAHAQLVREVDVEKVSAFENPYVDAIKSLWNDPGIQECYDRRREYQLSDSTKYYLNDLDRVADPSYLPTQQDVLRVRVPTTGIIEYPFDLQSVIFRMVDVGGQRSERRKWIHCFENVTSIMFLVALSEYDQVLVESDNENRMEESKALFRTIITYPWFQNSSVILFLNKKDLLEEKIMYSHLVDYFPEYDGPQRDAQAAREFILKMFVDLNPDSDKIIYSHFTCATDTENIRFVFAAVKDTILQLNLKYIGLC | 287 | 4720 | 0 | 1880 | 782 | 2800 | 15600 | 90 | 20000 | 405 | 128 | 4390 | 4060 | 10900 | 82 | 804
